In US20200262921A1 (SHANGHAI KANDA BIOTECHNOLOGY, published 2020):
Read-outs that look alike come from different tables or passages of the source.

T1: Recombinant human CTLA-4-Fc fusion protein (R&D Systems, Catalog number 352-CTY/CF) (human, UniProt P16410 37-162)
T1 construct: range 37-162; Bought reagent; also called rhCTLA-4; rhCTLA-4-Fc; not shown: immunoglobulin gamma I Fc region
T1 sequence (looked up): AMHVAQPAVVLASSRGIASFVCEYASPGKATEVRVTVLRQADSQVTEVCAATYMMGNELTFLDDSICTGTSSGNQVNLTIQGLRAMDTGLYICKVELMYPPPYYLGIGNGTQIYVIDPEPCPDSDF

B1: C5 mAb (anti-human CTLA-4 full length human monoclonal antibody) (antibody, V domains shown)
VH: QVQLVQSGAEVKKPGASVKVSCKASGFSFPNYYMHWVRQAPGQGLEWMGIISPTGGSRTYAQKFQGRVTITRDTSTSTVYMELSSLRSEDTAVYYCAREMYNWNGGWDYGMDVWGQGTLVTVSS
VL: QSALTQSASVSGFPGQSITVSCVGTNSDVEAYDLVSWYRQHPDKSPNLLIYDNYKRPSGVSDRFSAFKSGNTASLTISGLQAEDEAYYYCCSYAGFSTWIFGAGTQLTVLG
notes: also called clone C5; KD6001-5
B2: C15 (scFv, V domains shown, not shown: large carriers; small tags and cut ends)
VH: QVQLVQSGAEVKKPGSSVKVSCKASGGTFSSYAISWVRQAPGQGLEWMGGIIPIFGTANYAQKFQGRVTITADESTSTAYMELSSLRSEDTAVYYCARDTAMALFYYYYGMDVWGQGTLVTVSS
VL: QSALTQPASVSGSPGQSTTISCTGTSSDVGGYNYVSWYQQHPGKAPKLMIYEVSNRPSGVSNRFSGSKSGNTASLTISGLQAEDEADYYCSSYRSSGTPYVFGTGTKLTVL
notes: scFv phage form of clone C15; also called clone C15 scFv phage; C15 scFv; copies: 1 + 1
B3: C2 mAb (anti-human CTLA-4 full length human monoclonal antibody) (antibody, V domains shown)
VH: QVQLVQSGGGVVQPGRSLRLSCAASGFTFSSYGMHWVRQAPGKGLEWVAVIWYDGSRQYYADSVKGRFTISRDDSKNTMYLQMNSLRAEDTAVYYCARGGFWGAFDIWGQGTMVTVSS
VL: DVVMTQSPGTLSLSPGEGATLSCRASQHVISSYLAWYQQKPGQAPRLLVYGASSRDTGVSDRFTGSGSGTDFTLTISRLEPEDSAVYFCQQYGTSPWTFGQGTKLEIKR
notes: also called clone C2; KD6001-2

Key:
[1] = target: T1, Recombinant human CTLA-4-Fc fusion …; experiment: ELISA, plates coated with purified rhCTLA-4, 4-parameter fit; C5 mAb
[2] = target: T1, Recombinant human CTLA-4-Fc fusion …; experiment: ELISA on coated rhCTLA-4, goat anti-human IgG F(ab') alkaline phosphatase, OD 415 nm
[3] = target: T1, Recombinant human CTLA-4-Fc fusion …; experiment: BLI (Fortebio), mAb captured on sensors, rhCTLA-4-Fc in solution 100 nM to 1.6 nM
Procedure: Kinetic analysis of binding to rhCTLA-4. […] The sensors were then blocked in the blocking solution for 5 min. Recombinant human CTLA-4-Fc protein was two-fold serial diluted in the blocking solution to 7 different concentrations, range from 100 nM to 1.6 nM. Kinetic association assays were started by putting antibody-capturing sensors into above serial diluted CTLA-4-Fc solutions. One sensor was immersed into the blocking solution as negative control. After 5 min binding, all sensors were moved to the blocking solution to start kinetic dissociation assays. Assays were stopped after 7 min.

[4] = target: T1, Recombinant human CTLA-4-Fc fusion …; experiment: ELISA on coated CTLA-4 (rhCTLA-4-Fc), scFv phage at one amount, anti-M13-HRP, absorbance at 450 nm
[5] = target: T1, Recombinant human CTLA-4-Fc fusion …; experiment: ELISA, plates coated with purified rhCTLA-4, 4-parameter fit; C2 mAb
[6] = target: T1, Recombinant human CTLA-4-Fc fusion …; experiment: ELISA on coated rhCTLA-4, goat anti-human IgG F(ab') alkaline phosphatase, OD 415 nm; remark: listed apart in the source
[7] = target: T1, Recombinant human CTLA-4-Fc fusion …; experiment: competition ELISA on coated rhCTLA-4-Fc, 10 ng/ml biotin-B7-1-Fc mixed with the antibody, streptavidin alkaline phosphatase, absorption at 405 nm
Procedure: Human recombinant CTLA-4-Fc (2 ug/ml) in 50 ul of 20 mM NaHCO3, pH 9.7 was coated on 96-well plates and incubated at 4° C. overnight. After rhCTLA-4-Fc was removed, the plates were blocked with 100 ul of 3% BSA in wash/dilution buffer (TBS buffer, pH 7.0 containing 0.05% Tween-20) at 37° C. for 2 hours. […] The mixtures (50 ul/well) were added to rhCTLA-4-Fc coated plates and incubated at 37° C. for 2 hours. The solution was decanted, and the plates were washed 3 times with wash buffer. Alkaline phosphatase conjugated streptavidin (Herochem Inc., China) was diluted 2500-fold in binding buffer and add 50 ul/well to plates. After the plates were incubated at 37° C. for 2 hours, the AP-streptavidin solution was decanted, and the plates were washed 6 times with wash buffer. Alkaline phosphatase substrate pNpp solution was added 50 ul/well to plates. The plates were incubated at 37° C. for 20 min and read at 405 nm using a Bio-Rad microplate reader. […] All samples were tested in duplicate.

Binder | EC50 [1] [µg/mL] | EC50 (read off the curve) [2] [µg/mL] | Kd [3] [nM] | koff [3] [s⁻¹] | kon [3] [M⁻¹ s⁻¹] | binding result [4] | EC50 [5] [µg/mL] | EC50 (read off the curve) [6] [µg/mL] | IC50 (read off the curve) [7] [µg/mL]
B1 | 0.066 | ~0.08 | 2.2 | 0.00061 | 280000 |  |  |  | 
B2 |  |  |  |  |  | binds |  |  | 
B3 |  |  | 0.86 | 0.00048 | 550000 |  | 0.025 | ~0.03 | ~0.03
